Assay in all cases: G' assay
The target of experiment [1] is T1, GST-MINT1 PDZ domains 1, 2, Q02410.
T1 chain: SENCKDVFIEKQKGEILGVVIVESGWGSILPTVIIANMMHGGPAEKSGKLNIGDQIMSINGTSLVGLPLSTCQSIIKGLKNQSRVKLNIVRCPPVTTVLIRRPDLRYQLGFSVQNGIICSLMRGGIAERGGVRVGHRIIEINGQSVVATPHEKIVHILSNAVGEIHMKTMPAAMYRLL

In experiment [2] the target is T2, GST-FLJ00011 PDZ domain 1 (Homo sapiens (Human)), Q9H5P4.
T2 chain: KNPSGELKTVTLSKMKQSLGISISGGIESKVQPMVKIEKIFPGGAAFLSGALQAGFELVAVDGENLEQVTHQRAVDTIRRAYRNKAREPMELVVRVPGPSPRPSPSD

For experiment [3], the target named is T3, GST-LIM Mystique PDZ domain 1 (Homo sapiens (Human)), Q96JY6.
T3 chain: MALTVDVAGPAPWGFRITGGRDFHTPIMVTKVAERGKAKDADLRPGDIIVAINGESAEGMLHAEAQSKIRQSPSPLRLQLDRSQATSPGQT

Experiment [4] deals with T4, GST-KIAA0382 PDZ domain 1 (Canis lupus familiaris (Dog) (Canis familiaris)), A0A8I3.
T4 chain: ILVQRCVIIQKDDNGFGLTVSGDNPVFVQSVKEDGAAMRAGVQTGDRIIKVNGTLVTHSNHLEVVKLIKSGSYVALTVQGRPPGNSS

In experiment [5] the target is GST-BAI-1 Associated Protein PDZ domain 6 (Homo sapiens (Human)), Q96QZ7.
For experiment [6], the target named is T5, GST-HEMBA 1003117 PDZ domain 1 (Homo sapiens (Human)), Q96JH8.
T5 chain: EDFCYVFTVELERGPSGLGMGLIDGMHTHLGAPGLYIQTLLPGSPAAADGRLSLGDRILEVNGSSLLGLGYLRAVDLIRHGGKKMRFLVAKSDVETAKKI

In experiment [7] the target is T6, GST-MINT1 PDZ domain 2 (Mus musculus (Mouse)), B2RUJ5.
T6 chain: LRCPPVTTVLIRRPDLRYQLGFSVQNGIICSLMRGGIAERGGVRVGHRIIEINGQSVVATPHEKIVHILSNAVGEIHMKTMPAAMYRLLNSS

Experiment [8] concerns the target GST-Atrophin-1 Interacting Protein PDZ domain 3 (Rattus norvegicus (Rat)), O88382.
For experiment [9], the target named is GST-Atrophin-1 Interacting Protein PDZ domain 5 (Rattus norvegicus (Rat)), O88382.
Experiment [10] addresses T7, GST-AIPC PDZ domain 1 (Homo sapiens (Human)), O15018.
T7 chain: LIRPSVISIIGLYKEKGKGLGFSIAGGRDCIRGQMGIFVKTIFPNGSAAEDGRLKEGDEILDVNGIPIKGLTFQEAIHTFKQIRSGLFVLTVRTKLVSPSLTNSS

Experiment [11] addresses T8, GST-KIAA1526 PDZ domain 1 (Homo sapiens (Human)), Q9P202.
T8 chain: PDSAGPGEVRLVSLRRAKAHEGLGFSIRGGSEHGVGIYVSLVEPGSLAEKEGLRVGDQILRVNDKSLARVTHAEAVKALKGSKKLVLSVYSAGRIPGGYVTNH

In experiment [12] the target is T9, GST-INADL PDZ domain 3 (Homo sapiens (Human)), Q8NI35.
T9 chain: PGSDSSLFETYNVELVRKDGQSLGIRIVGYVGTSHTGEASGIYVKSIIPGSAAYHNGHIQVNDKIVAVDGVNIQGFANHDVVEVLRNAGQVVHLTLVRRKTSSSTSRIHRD

The target of experiment [13] is T10, GST-LIM-RIL PDZ domain 1 (Homo sapiens (Human)), P50479.
T10 chain: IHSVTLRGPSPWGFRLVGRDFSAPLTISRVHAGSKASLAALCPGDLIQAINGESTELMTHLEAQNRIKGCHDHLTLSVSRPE

Experiment [14] addresses T11, GST-Syntrophin gamma 1 PDZ domain 1 (Homo sapiens (Human)), Q9NSN8.
T11 chain: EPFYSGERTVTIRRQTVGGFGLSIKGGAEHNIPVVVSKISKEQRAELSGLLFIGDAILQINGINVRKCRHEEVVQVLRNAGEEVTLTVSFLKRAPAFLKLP

The target in experiment [15] is T12, GST-TIP1 PDZ domain 1 (Table 9 insert) (Homo sapiens (Human)), O14907.
T12 chain: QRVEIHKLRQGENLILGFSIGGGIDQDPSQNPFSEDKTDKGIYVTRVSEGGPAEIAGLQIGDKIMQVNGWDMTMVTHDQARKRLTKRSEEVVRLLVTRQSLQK

Experiment [16] addresses T13, GST-FLJ 10324 PDZ domain 1 [GST: P08515].
T13 chain: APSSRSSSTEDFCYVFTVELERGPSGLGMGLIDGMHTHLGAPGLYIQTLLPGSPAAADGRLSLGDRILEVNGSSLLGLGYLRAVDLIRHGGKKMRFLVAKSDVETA

For experiment [17], the target named is T14, GST-KIAA0807(S) PDZ domain 1 (Homo sapiens (Human)), Q6P0Q8.
T14 chain: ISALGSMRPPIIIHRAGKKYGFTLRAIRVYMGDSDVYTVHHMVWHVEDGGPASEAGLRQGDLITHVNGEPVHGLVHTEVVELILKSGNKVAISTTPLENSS

In experiment [18] the target is GST-KIAA807 [GST: P08515].
Experiment [19] addresses GST-KIAA1634 PDZ domain 5 (Homo sapiens (Human)), Q5TCQ9.
Experiment [20] addresses T15, GST-Outer Membrane PDZ domain 1 (Homo sapiens (Human)), P57105.
T15 chain: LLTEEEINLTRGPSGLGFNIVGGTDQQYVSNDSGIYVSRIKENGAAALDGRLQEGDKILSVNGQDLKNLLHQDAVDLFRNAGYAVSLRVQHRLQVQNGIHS

Experiment [21] has as its target GST-BAI-1 Associated Protein PDZ domain 2 (Mus musculus (Mouse)), Q6RHR9.
Also: key of the grades not given here.

GST-KIAA807 [GST: P08515], sequence (P08515 whole entry, the tested form may be a part): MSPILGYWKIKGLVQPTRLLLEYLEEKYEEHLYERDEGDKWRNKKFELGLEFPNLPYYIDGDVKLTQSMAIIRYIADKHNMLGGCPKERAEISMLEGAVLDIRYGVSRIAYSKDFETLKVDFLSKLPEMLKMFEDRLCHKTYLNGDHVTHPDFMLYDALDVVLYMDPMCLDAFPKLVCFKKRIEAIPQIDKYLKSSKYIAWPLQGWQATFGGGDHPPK
GST-BAI-1 Associated Protein PDZ domain 6 (Homo sapiens (Human)), Q96QZ7, sequence (Q96QZ7 1143-1233): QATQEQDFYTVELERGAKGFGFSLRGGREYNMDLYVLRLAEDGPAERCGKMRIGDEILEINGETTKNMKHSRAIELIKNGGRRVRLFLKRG
GST-Atrophin-1 Interacting Protein PDZ domain 5 (Rattus norvegicus (Rat)), O88382, sequence (O88382 1128-1225): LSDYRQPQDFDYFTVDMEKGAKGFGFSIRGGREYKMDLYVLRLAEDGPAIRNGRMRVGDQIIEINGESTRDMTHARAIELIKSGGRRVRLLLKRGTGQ
GST-Atrophin-1 Interacting Protein PDZ domain 3 (Rattus norvegicus (Rat)), O88382, sequence (O88382 774-865, tags or fused parts left off): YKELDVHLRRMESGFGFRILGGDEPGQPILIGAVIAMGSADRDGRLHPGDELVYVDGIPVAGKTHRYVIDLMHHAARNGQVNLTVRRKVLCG
GST-BAI-1 Associated Protein PDZ domain 2 (Mus musculus (Mouse)), Q6RHR9, sequence (Q6RHR9 455-558): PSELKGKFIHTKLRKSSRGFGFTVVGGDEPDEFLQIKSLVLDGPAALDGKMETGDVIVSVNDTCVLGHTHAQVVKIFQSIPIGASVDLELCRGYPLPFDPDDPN
GST-KIAA1634 PDZ domain 5 (Homo sapiens (Human)), Q5TCQ9, sequence (Q5TCQ9 other isoform, or with tags, fused parts or gaps): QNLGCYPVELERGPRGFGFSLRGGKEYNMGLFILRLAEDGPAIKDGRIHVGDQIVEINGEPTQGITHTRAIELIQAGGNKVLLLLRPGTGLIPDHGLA

With ILNSIQVMRAQMNQIQSVEV (modifications not checked) [ephrin B2], the Classification in experiment [1] is 2 A450 class; in experiment [2], 2 A450 class; in [3], 1 A450 class; in [4] it was 2 A450 class; in experiment [5], 2 A450 class; in experiment [6], 2 A450 class. Also, the Classification was determined as 3 A450 class in experiment [7]; 1 A450 class in experiment [8]; 2 A450 class in experiment [9]; 2 A450 class in experiment [10]; 3 A450 class in experiment [11]; 2 A450 class in [12]. Moreover, the Classification in [13], in experiment [14], in experiment [15], in experiment [16], in [17] and in [18] was 2 A450 class in each case.

TQGFPGPATWRRISSLESEV (modifications not checked) [NMDA Glutamate Receptor 2C (cysteine-free)]: the Classification in experiment [19] was 1 A450 class; in experiment [1], 1 A450 class; in [2], 2 A450 class; in experiment [3], 4 A450 class; in [4] it was 1 A450 class; in experiment [5], 2 A450 class. In addition, the Classification in experiment [7] came to 1 A450 class; in experiment [8] it was 2 A450 class; in experiment [9], 5 A450 class; in experiment [10], 3 A450 class; in experiment [20] it was 5 A450 class; in [11], 3 A450 class. Besides, the Classification worked out at 2 A450 class in experiment [12]; 5 A450 class in experiment [13]; 4 A450 class in experiment [14]; 5 A450 class in experiment [15]; 4 A450 class in [21]; 5 A450 class in experiment [17]. Moreover, in experiment [18], the Classification was 4 A450 class.

As for QISPGGLEPPSEKHFRETEV (modifications not checked) [TAX], the Classification in [19] was 1 A450 class; in experiment [2] it was 1 A450 class; in [3], 1 A450 class; in [5] it was 1 A450 class; in [8], 1 A450 class; in [9], 3 A450 class. Also, the Classification in experiment [10] stood at 1 A450 class; in [20], 5 A450 class; in [11], 3 A450 class; in [12] it was 1 A450 class; in [13], 1 A450 class; in experiment [14], 5 A450 class. For the same molecule, the Classification stood at 5 A450 class in experiment [15]; 1 A450 class in experiment [16]; 5 A450 class in experiment [21]; 5 A450 class in experiment [17]; 5 A450 class in experiment [18].

(Values after patent US20050282743A1, “Molecular interactions in cells” (Arbor Vita Corporation, priority 2001, published 2005).)
